# Assay results reported in PMC4705668.
# Molecular target: 111p (modern human L1Pa1 ORF1p) (Homo sapiens, UniProt Q9UN81 1-338)
# Experiment: filter binding; 0.05 M NaCl, 37 C; the three proteins indistinguishable; Filter binding: 20 mM Tris, 10% glycerol, 0.5 mM MgCl2, 0.1 mM DTT, 100 ug/ml BSA, 0.05 M NaCl, 37 C 1 h, 0.1 nM DNA; cross-linking: 20 mM Hepes pH 7.5, 10% gly
# Sequence of 111p (modern human L1Pa1 ORF1p) (Q9UN81 whole entry): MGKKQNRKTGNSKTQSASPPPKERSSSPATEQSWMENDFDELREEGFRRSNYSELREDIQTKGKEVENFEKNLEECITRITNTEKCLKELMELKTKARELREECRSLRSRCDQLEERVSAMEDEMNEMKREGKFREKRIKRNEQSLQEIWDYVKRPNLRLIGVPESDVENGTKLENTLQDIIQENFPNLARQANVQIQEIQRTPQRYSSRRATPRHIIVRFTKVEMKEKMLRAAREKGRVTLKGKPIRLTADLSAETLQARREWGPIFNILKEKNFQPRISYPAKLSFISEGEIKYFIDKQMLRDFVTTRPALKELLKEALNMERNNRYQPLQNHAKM
binder,measurement,value
mismatched duplex d29 / d29_c-mm (dsDNA) DNA 1: AAAAAGTACACAGTCTAACATCAACTCGC DNA 2: GCGAGTTGACGTCAGACCGTGCACTTTTT,binding result,binds
